In US20160331662A1 (UAB RESEARCH FOUNDATION, published 2016):

T1: A3VP1^AgI/II (Streptococcus mutans UA159, UniProt P23504 386-874)
T1 construct: domain: A3VP1; also called A3VP1 of AgI/II
T1 sequence: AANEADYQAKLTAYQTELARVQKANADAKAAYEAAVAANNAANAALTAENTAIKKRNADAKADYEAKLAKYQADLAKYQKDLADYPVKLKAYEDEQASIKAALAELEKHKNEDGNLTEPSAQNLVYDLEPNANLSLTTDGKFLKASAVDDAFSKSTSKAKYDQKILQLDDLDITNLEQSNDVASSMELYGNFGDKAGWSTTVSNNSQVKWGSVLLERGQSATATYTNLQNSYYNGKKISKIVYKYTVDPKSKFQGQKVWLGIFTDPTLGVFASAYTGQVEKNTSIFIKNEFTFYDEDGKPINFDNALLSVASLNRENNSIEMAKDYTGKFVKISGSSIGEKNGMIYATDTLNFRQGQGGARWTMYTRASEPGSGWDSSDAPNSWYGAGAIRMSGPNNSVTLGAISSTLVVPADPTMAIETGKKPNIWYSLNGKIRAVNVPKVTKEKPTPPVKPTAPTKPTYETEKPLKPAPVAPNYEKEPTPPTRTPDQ

T2: C123^AgI/II (Streptococcus mutans UA159, UniProt P23504 1000-1486)
T2 construct: domain: C123
T2 sequence: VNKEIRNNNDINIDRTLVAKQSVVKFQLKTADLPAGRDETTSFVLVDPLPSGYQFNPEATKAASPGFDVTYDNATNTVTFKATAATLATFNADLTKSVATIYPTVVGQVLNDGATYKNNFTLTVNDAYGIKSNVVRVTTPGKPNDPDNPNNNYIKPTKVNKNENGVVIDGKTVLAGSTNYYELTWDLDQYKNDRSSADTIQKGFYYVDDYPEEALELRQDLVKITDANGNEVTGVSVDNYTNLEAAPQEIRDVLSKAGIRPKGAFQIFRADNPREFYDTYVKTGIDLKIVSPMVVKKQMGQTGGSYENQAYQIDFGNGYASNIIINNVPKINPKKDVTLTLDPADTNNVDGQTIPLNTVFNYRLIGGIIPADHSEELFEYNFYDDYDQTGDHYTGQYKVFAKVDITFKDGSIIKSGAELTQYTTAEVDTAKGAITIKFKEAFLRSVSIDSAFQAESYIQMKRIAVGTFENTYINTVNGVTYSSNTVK

B1: iSRCR1 (receptor, not shown: small tags and cut ends)
chain: not shown
notes: domain: SRCR1; also called SRCRs; iSRCRs
B2: iSRCR1 (Deglycosylated) (receptor)
chain: not shown
notes: domain: SRCR1; also called deglycosylated iSRCR1
B3: FL^SspB (S. gordonii DL1 SspB, residues 39-1433) (other)
chain: DEVTETTSTSTVEVATTGNPATNLPEAQGEMSQVAKESQAKAGSKESALPVEVSSADLDKAVADAKSAGVKVVQDETKDKGTATTATDNAQKQDEIKSDYAKQAEEIKTTTEAYKKEVAAHQAETDKINAENKAADDKYQKDLKSHQEEVEKINTANATAKAEYEAKLAQYQKDLATVKKANEDSQQDYQNKLSAYQTELARVQKANAEAKEAYEKAVKENTAKNEALKVENEAIKQRNETAKATYEAAMKQYEADLAAIKKANEDNDADYQAKLAAYQTELARVQKANAEAKEAYDKAVKENTAKNTAIQAENEAIKQRNETAKATYDAAVKKYEADLAAVKQANATNEADYQAKLAAYQTELARVQKANADAKATYEKAVEDNKAKNAAIKAENEEIKQRNAVAKTDYEAKLAKYEADLAKYKKEFAAYTAALAEAESKKKQDGYLSEPRSQSLNFKSEPNAIRTIDSSVHQYGQQELDALVKSWGISPTNPDRKKSRAYSYFNAINSNNTYAKLVLEKDKPVDVTYTGLKNSSFNGKKISKVVYTYTLKETGFNDGTKMTMFASSDPTVTAWYNDYFTSTNINVKVKFYDEEGQLMNLTGGLVNFSSLNRGNGSGAIDKDAIESVRNFNGRYIPISGSSIKIHENNSAYADSSNAEKSLGARWNTSEWDTTSSPNNWYGAIVGEITQSEISFNMASSKSGNIWFAFNSNINAIGVPTKPVAPTAPTQPMYETEKPLEPAPVAPSYENEPTPPVKTPDQPEPSKPEEPTYETEKPLEPAPVAPSYENEPTPPVKTPDQPEPSKPEEPNYETEKPLEPAPVAPSYENEPTPPVKIPDQPEPSKPEEPTYDPLPTPPLAPTPKQLPTPPVVPTVHFHYSSLLAQPQINKEIKNEDGVDIDRTLVAKQSIVKFELKTEALTAGRPKTTSFVLVDPLPTGYKFDLDATKAASTGFDTTYDEASHTVTFKATDETLATYNADLTKPVETLHPTVVGRVLNDGATYTNNFTLTVNDAYGIKSNVVRVTTPGKPNDPDNPNNNYIKPTKVNKNKEGLNIDGKEVLAGSTNYYELTWDLDQYKGDKSSKEAIQNGFYYVDDYPEEALDVRPDLVKVADEKGNQVSGVSVQQYDSLEAAPKKVQDLLKKANITVKGAFQLFSADNPEEFYKQYVATGTSLVITDPMTVKSEFGKTGGKYENKAYQIDFGNGYATEVVVNNVPKITPKKDVTVSLDPTSENLDGQTVQLYQTFNYRLIGGLIPQNHSEELEDYSFVDDYDQAGDQYTGNYKTFSSLNLTMKDGSVIKAGTDLTSQTTAETDATNGIVTVRFKEDFLQKISLDSPFQAETYLQMRRIAIGTFENTYVNTVNKVAYASNTVRTTTPIPRTPDKPTPIPTPKPKDP
notes: range 39-1433
B4: iSRCR123 (Deglycosylated) (receptor)
chain: not shown
notes: domain: SRCR123; also called deglycosylated iSRCR123

Assays:
iSRCR123 [1] = target: T3, iSRCR123 (human, UniProt Q9UGM3 102-463); test: SPR, analyte over immobilized iSRCR123; quantity and unit not printed beside the number, told as 'nanomolar affinities'
T3 construct: domain: SRCR123; also called SRCRs; iSRCRs

[2] = target: T4, FL^AgI/II (S. mutans UA159 Antigen I/II, full length recombinant construct) (Streptococcus mutans UA159, UniProt P23504 39-1562); test: SPR, analyte over ligand immobilized on CM5 chip, 1:1 Langmuir model; SPR with calcium; immobilized iSRCR1, not deglycosylated
T4 construct: also called CG14

A3VP1^AgI/II [3] = target: T1, A3VP1^AgI/II; test: as above
C123^AgI/II [4] = target: T2, C123^AgI/II; test: as above
[5] = target: B3; test: as above
iSRCR123 [6] = target: T3, iSRCR123; test: SPR, analyte over immobilized iSRCR1; quantity and unit not printed beside the number, unit taken from the paragraph's 'nanomolar affinities'
[7] = target: T4, FL^AgI/II (S. mutans UA159 Antigen …); test: SPR, analyte over ligand deglycosylated on the CM5 chip, 1:1 Langmuir model
A3VP1^AgI/II [8] = target: T1, A3VP1^AgI/II; test: as above
C123^AgI/II [9] = target: T2, C123^AgI/II; test: as above
[10] = target: B3; test: as above
[11] = target: salivary agglutinin (SAG) (human, UniProt Q9UGM3 20-2413); test: SPR, analyte over SAG immobilized on CM5 chip, 1:1 Langmuir model
salivary agglutinin (SAG), sequence (Q9UGM3 whole entry): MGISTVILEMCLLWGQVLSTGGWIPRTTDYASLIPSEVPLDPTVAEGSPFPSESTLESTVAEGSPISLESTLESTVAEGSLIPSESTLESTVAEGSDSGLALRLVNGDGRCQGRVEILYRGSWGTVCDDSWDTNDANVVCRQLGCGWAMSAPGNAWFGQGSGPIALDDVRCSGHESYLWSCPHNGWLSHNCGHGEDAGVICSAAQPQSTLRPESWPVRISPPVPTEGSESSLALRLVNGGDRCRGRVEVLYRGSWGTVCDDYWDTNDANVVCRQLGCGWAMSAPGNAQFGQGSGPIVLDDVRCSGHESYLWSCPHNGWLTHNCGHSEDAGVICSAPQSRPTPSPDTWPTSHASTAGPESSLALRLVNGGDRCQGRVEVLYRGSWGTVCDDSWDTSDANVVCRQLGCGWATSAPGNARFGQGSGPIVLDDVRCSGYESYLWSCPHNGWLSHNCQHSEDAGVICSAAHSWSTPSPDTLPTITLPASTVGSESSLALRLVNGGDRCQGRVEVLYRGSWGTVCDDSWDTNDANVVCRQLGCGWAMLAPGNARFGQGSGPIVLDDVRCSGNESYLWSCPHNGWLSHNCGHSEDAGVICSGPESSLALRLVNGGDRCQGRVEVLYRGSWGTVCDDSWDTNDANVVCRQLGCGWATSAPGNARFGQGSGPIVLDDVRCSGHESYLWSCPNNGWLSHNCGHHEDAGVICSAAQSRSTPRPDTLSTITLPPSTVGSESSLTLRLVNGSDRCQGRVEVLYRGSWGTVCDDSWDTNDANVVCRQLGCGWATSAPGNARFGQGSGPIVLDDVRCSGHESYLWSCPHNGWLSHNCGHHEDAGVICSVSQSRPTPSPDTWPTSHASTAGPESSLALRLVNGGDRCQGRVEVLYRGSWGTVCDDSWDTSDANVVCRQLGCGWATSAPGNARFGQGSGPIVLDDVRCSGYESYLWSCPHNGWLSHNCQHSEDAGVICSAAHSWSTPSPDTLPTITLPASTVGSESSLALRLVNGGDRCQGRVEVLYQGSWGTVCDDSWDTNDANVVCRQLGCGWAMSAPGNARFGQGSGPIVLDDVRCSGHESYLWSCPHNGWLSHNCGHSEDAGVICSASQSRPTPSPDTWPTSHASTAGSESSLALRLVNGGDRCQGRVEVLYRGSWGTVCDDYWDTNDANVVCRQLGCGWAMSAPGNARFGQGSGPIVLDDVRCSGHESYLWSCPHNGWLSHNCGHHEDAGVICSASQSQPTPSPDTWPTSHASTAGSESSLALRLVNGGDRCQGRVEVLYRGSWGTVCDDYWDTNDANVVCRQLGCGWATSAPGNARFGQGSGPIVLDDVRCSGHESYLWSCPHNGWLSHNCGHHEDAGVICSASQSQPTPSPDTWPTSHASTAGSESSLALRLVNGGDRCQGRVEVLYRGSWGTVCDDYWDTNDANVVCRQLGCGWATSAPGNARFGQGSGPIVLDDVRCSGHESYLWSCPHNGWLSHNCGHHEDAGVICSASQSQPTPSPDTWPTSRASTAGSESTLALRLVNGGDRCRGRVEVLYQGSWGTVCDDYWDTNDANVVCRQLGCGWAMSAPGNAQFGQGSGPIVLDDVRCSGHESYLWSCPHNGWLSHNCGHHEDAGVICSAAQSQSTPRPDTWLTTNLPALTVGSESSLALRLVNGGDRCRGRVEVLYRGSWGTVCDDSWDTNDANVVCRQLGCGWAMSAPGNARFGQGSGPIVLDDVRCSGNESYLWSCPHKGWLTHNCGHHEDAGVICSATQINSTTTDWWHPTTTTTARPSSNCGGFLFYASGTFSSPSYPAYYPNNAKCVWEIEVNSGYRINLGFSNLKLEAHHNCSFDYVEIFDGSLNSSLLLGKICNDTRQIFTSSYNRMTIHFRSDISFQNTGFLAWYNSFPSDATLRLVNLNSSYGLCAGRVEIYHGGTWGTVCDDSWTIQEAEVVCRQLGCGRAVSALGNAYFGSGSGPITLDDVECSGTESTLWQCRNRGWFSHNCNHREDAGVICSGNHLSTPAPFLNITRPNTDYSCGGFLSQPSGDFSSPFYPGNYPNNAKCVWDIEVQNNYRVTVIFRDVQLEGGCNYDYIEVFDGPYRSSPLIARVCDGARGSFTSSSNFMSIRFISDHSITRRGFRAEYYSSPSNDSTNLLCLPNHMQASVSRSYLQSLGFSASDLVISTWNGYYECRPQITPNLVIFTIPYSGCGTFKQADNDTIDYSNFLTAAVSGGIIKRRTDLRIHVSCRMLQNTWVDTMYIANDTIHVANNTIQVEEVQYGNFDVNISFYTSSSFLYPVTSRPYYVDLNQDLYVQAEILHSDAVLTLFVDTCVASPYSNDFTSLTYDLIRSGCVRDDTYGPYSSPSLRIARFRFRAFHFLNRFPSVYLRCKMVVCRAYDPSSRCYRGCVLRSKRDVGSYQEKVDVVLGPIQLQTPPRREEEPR

T4 sequence (P23504 39-1562): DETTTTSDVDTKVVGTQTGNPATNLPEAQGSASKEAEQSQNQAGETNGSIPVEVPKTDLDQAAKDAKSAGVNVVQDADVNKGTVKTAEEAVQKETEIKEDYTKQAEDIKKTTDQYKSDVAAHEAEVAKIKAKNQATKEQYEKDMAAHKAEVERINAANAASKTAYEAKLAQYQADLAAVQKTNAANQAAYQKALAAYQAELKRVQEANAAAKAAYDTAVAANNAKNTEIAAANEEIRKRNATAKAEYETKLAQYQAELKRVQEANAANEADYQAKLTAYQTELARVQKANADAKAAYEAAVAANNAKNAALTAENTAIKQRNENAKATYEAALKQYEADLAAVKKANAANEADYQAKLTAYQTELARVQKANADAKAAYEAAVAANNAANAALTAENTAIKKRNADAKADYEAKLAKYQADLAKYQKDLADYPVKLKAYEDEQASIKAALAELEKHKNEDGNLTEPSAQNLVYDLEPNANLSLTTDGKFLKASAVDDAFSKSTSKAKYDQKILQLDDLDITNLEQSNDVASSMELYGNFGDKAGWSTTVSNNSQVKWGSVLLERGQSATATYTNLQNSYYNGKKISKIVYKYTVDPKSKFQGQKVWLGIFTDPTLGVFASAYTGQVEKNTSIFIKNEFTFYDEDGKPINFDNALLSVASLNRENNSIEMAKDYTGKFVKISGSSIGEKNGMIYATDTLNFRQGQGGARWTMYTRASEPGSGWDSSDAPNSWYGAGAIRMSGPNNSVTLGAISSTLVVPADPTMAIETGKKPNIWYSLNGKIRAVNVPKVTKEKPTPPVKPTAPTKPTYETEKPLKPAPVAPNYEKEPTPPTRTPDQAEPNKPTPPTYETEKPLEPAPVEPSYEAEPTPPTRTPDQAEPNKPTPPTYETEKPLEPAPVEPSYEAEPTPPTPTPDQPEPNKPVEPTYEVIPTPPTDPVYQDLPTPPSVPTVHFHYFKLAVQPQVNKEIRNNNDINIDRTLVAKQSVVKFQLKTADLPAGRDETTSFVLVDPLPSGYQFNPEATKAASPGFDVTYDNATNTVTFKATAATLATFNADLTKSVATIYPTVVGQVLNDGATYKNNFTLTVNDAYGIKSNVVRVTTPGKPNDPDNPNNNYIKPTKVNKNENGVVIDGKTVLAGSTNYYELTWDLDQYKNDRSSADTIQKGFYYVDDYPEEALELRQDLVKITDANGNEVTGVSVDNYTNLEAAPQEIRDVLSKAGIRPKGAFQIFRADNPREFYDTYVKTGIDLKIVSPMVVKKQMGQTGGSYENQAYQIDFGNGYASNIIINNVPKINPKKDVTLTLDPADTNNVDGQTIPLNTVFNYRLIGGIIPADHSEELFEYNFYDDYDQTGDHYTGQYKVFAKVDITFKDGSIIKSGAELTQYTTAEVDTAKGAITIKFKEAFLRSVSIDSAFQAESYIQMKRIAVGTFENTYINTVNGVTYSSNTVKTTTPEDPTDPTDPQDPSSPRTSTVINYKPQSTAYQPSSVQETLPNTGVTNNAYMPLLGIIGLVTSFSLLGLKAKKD
T3 sequence (Q9UGM3 102-463 limits assumed): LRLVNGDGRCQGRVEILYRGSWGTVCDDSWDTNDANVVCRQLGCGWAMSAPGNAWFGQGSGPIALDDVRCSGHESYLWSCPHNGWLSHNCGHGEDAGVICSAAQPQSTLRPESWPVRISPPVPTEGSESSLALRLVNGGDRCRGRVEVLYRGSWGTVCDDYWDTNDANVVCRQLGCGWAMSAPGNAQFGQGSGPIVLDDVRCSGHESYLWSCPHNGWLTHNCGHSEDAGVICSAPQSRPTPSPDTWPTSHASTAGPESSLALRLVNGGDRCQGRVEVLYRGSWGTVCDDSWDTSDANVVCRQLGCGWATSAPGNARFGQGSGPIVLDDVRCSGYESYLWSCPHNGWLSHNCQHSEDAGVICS

| Binder | Ka [7] [M⁻¹] | Kd [7] [nM] | koff [7] [s⁻¹] | kon [7] [M⁻¹ s⁻¹] | Ka (A3VP1^AgI/II [8]) [M⁻¹] | Kd (A3VP1^AgI/II [8]) [nM] | koff (A3VP1^AgI/II [8]) [s⁻¹] | kon (A3VP1^AgI/II [8]) [M⁻¹ s⁻¹] | Ka (C123^AgI/II [9]) [M⁻¹] | Kd (C123^AgI/II [9]) [nM] | koff (C123^AgI/II [9]) [s⁻¹] | kon (C123^AgI/II [9]) [M⁻¹ s⁻¹] | Ka [10] [M⁻¹] | Kd [10] [nM] | koff [10] [s⁻¹] | kon [10] [M⁻¹ s⁻¹] | also measured |
| --- | --- | --- | --- | --- | --- | --- | --- | --- | --- | --- | --- | --- | --- | --- | --- | --- | --- |
| B1 | – | – | – | – | – | – | – | – | – | – | – | – | – | – | – | – | Kd (iSRCR123 [1]): 1.2 nM; Ka [2]: 1.31e+08 M⁻¹; Kd [2]: 7.69 nM; koff [2]: 0.000976 s⁻¹; kon [2]: 127000 M⁻¹ s⁻¹; Ka (A3VP1^AgI/II [3]): 8.57e+06 M⁻¹; Kd (A3VP1^AgI/II [3]): 117 nM; koff (A3VP1^AgI/II [3]): 0.00327 s⁻¹; kon (A3VP1^AgI/II [3]): 28000 M⁻¹ s⁻¹; Ka (C123^AgI/II [4]): 6.46e+06 M⁻¹; Kd (C123^AgI/II [4]): 151 nM; koff (C123^AgI/II [4]): 0.00232 s⁻¹; kon (C123^AgI/II [4]): 15400 M⁻¹ s⁻¹; Ka [5]: 3.91e+06 M⁻¹; Kd [5]: 256 nM; koff [5]: 0.00237 s⁻¹; kon [5]: 9250 M⁻¹ s⁻¹; Kd (iSRCR123 [6]): 5.68 nM |
| B2 | 865000 | 1160 | 0.0575 | 49700 | 1.92e+06 | 520 | 0.00274 | 5270 | 48100 | 20800 | 0.0246 | 1180 | 7.97e+06 | 125 | 0.00104 | 8300 | – |
| B3 | – | – | – | – | – | – | – | – | – | – | – | – | – | – | – | – | Ka [11]: 1.63e+08 M⁻¹; Kd [11]: 6.15 nM; koff [11]: 0.00197 s⁻¹; kon [11]: 320000 M⁻¹ s⁻¹ |
| B4 | 6.82e+06 | 147 | 0.000464 | 3160 | 1.22e+06 | 818 | 0.00333 | 4070 | 458000 | 2180 | 0.00658 | 3010 | 5.24e+06 | 191 | 0.00132 | 6920 | – |
